Experimental data as given in patent US20170015720A1 (published 2017).

T1: CLDN6 (Claudin-6) peptide on HLA-A*02:01 (human)
T1 peptide: QILGVVLTL

T2: CLDN6 (Claudin-6) peptide on HLA-A*02:01 (human)
T2 peptide: ALFGLLVYL


Experiments:
[1] = molecular target: T1, CLDN6 (Claudin-6) peptide on HLA-A*02:01; test: cytokine release
[2] = molecular target: T2, CLDN6 (Claudin-6) peptide on HLA-A*02:01; test: killing

Row | binding result [1] | Binder | binding result [2]
1 | recognises | TCRCD8-mC16#7 (TCR, V domains shown) Valpha: GDSVTQTEGQVALSEEDFLTIHCNYSASGYPALFWYVQYPGEGPQFLFRASRDKEKGSSRGFEATYDKGTTSFHLRKASVQESDSAVYYCALGNNYAQGLTFGLGTRVSVFP Vbeta: EAAVTQSPRSKVAVTGGKVTLSCHQTNNHDYMYWYRQDTGHGLRLIHYSYVADSTEKGDIPDGYKASRPSQENFSLILELASLSQTAVYFCASSTGNERLFFGHGTKLSVL | 
2 |  | TCRCD8-mC16#1 (TCR, V domains shown) Valpha: AQSVTQPDARVTVSEGASLQLRCKYSYFGTPYLFWYVQYPRQGLQLLLKYYPGDPVVQGVNGFEAEFSKSNSSFHLRKASVHWSDWAVYFCAVSMSSGTYQRFGTGTKLQVVP Vbeta: DMKVTQMPRYLIKRMGENVLLECGQDMSHETMYWYRQDPGLGLQLIYISYDVDSNSEGDIPKGYRVSRKKREHFSLILDSAKTNQTSVYFCASSSQNQDTQYFGPGTRLLVL | recognises
3 |  | TCRCD8-mC16#12 (TCR, V domains shown) Valpha: GEQVEQRPPHLSVREGDSAVITCTYTDPNSYYFFWYKQEPGASLQLLMKVFSSTEINEGQGFTVLLNKKDKRLSLNLTAAHPGDSAAYFCAVESSSFSKLVFGQGTSLSVVP Vbeta: NSKVIQTPRYLVKGQGQKAKMRCIPEKGHPVVFWYQQNKNNEFKFLINFQNQEVLQQIDMTEKRFSAECPSNSPCSLEIQSSEAGDSALYLCASSLTGGAQDTQYFGPGTRLLVL | recognises
4 |  | TCRCD8-mC16#2 (TCR, V domains shown) Valpha: GDSVTQTEGQVTVSESKSLIINCTYSATSIGYPNLFWYVRYPGEGLQLLLKVITAGQKGSSRGFEATYNKEATSFHLQKASVQESDSAVYYCALNNQGKLIFGQGTKLSIKP Vbeta: EAAVTQSPRNKVAVTGGKVTLSCNQTNNHNNMYWYRQDTGHGLRLIHYSYGAGSTEKGDIPDGYKASRPSQENFSLILELATPSQTSVYFCASGGDSQNTLYFGAGTRLSVL | recognises
5 |  | TCRCD8-mC16#14 (TCR, V domains shown) Valpha: GDQVEQSPSALSLHEGTGSALRCNFTTTMRAVQWFRKNSRGSLINLFYLASGTKENGRLKSAFDSKERYSTLHIRDAQLEDSGTYFCAAEGGGNYKPTFGKGTSLVVHP Vbeta: AQTIHQWPVAEIKAVGSPLSLGCTIKGKSSPNLYWYWQATGGTLQQLFYSITVGQVESVVQLNLSASRPKDDQFILSTEKLLLSHSGFYLCAWSPPINTEVFFGKGTRLTVV | recognises
6 |  | TCRCD8-mC16#8 (TCR, V domains shown) Valpha: AQKVTQTQTSISVVEKTTVTMDCVYETRDSSYFLFWYKQTASGEIVFLIRQDSYKKENATVGHYSLNFQKPKSSIGLIITATQIEDSAVYFCAMREAANSGTYQRFGTGTKLQVVP Vbeta: DPKIIQKPKYLVAVTGSEKILICEQYLGHNAMYWYRQSAKKPLEFMFSYSYQKLMDNQTASSRFQPQSSKKNHLDLQITALKPDDSATYFCASSQQNSGNTLYFGEGSRLIVV | recognises
7 |  | TCRCD8-mC16#18 (TCR, V domains shown) Valpha: GDSVTQTEGPVTVSESESLIINCTYSATSIAYPNLFWYVRYPGEGLQLLLKVITAGQKGSSRGFEATYNKETTSFHLQKASVQESDSAVYYCALGETGSFNKLTFGAGTRLAVCP Vbeta: NSKVIQTPRYLVKGQGQKAKMRCIPEKGHPVVFWYQQNKNNEFKFLINFQNQEVLQQIDMTEKRFSAECPSNSPCSLEIQSSEAGDSALYLCASSLGIYEQYFGPGTRLTVL | recognises
